The text below walks through data of paper PMC2034485.

For the data set, the target named is Rad18 S471A;Rad6 (hHR6B) (Homo sapiens;Homo sapiens, UniProt Q9NS91;P63146 1-495;1-152, S471A|). Briefly: EMSA, competition. For orientation: In EMSA bound probe runs differently from free probe, usually more slowly.
Rad18 S471A;Rad6 (hHR6B), sequence (Q9NS91 whole entry S471A, chain 1 of 2): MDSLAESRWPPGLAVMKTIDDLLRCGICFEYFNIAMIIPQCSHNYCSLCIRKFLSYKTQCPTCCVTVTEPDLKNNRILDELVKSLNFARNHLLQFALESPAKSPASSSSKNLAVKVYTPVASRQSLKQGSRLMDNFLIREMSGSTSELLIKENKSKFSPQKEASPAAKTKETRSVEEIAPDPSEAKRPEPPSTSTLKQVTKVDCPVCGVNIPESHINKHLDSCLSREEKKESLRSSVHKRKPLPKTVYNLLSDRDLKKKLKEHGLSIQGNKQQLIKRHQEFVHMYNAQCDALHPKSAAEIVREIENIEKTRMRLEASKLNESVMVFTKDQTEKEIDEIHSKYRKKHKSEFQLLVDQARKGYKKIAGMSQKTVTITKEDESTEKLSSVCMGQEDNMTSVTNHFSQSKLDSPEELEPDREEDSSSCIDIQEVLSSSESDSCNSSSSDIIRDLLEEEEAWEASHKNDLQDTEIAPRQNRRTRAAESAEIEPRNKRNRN
Rad18 S471A;Rad6 (hHR6B), sequence (P63146 whole entry, chain 2 of 2): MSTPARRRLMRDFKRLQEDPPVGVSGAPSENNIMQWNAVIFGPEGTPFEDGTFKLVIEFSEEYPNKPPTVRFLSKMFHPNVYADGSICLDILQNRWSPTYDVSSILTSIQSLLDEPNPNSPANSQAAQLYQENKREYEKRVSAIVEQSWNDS

B1: 35T (ssDNA)
DNA: TTTTTTTTTTTTTTTTTTTTTTTTTTTTTTTTTTT
Regarding B1, the binding result is reported as “binds”.
